Experimental data published in patent publication US20180222961A1 (IMMATICS BIOTECHNOLOGIES, published 2018).

B1: KPGTSYRVTL (peptide)
peptide: KPGTSYRVTL
B2: VPVYILLDEM (peptide)
peptide: VPVYILLDEM
B3: YPEGAAYEF (peptide)
peptide: YPEGAAYEF
B4: KPGPEDKL (peptide)
peptide: KPGPEDKL
B5: RPAPFEVVF (peptide)
peptide: RPAPFEVVF
B6: SPAMTSTSF (peptide)
peptide: SPAMTSTSF
B7: IPMAAVKQAL (peptide)
peptide: IPMAAVKQAL
B8: APRAGSQVV (peptide)
peptide: APRAGSQVV
B9: SPRRSPRISF (peptide)
peptide: SPRRSPRISF
B10: YPRTITPGM (peptide)
peptide: YPRTITPGM
B11: APVIFSHSA (peptide)
peptide: APVIFSHSA
B12: LPRGPLASLL (peptide)
peptide: LPRGPLASLL
B13: LPMWKVTAF (peptide)
peptide: LPMWKVTAF
B14: YPLRGSSI (peptide)
peptide: YPLRGSSI
B15: APTEDLKAL (peptide)
peptide: APTEDLKAL
B16: TVREASGLL (peptide)
peptide: TVREASGLL
B17: RVRSRISNL (peptide)
peptide: RVRSRISNL
B18: APRWFPQPTVV (peptide)
peptide: APRWFPQPTVV
B19: SPTFHLTL (peptide)
peptide: SPTFHLTL
B20: RPAMNYDKL (peptide)
peptide: RPAMNYDKL
B21: FPFQPGSV (peptide)
peptide: FPFQPGSV
B22: YPLRGSSIFGL (peptide)
peptide: YPLRGSSIFGL
B23: SPSSPMSTF (peptide)
peptide: SPSSPMSTF
B24: LPSDSHFKITF (peptide)
peptide: LPSDSHFKITF
B25: MPNLPSTTSL (peptide)
peptide: MPNLPSTTSL
B26: LPYFREFSM (peptide)
peptide: LPYFREFSM
B27: VPDSGATATAY (peptide)
peptide: VPDSGATATAY
B28: SPHPVTALLTL (peptide)
peptide: SPHPVTALLTL
B29: VPNQSSESL (peptide)
peptide: VPNQSSESL
B30: SPRENFPDTL (peptide)
peptide: SPRENFPDTL
B31: TPWAESSTKF (peptide)
peptide: TPWAESSTKF
B32: APRPASSL (peptide)
peptide: APRPASSL
B33: RVRSTISSL (peptide)
peptide: RVRSTISSL
B34: SPRTEASSAVL (peptide)
peptide: SPRTEASSAVL
B35: RPLFYVVSL (peptide)
peptide: RPLFYVVSL
B36: SPMTSLLTSGL (peptide)
peptide: SPMTSLLTSGL
B37: SPSPVSSTL (peptide)
peptide: SPSPVSSTL
B38: SPSPVTSTL (peptide)
peptide: SPSPVTSTL
B39: SPASRSISL (peptide)
peptide: SPASRSISL
B40: HPGSSALHY (peptide)
peptide: HPGSSALHY
B41: KPSESIYSAL (peptide)
peptide: KPSESIYSAL
B42: YPGFPQSQY (peptide)
peptide: YPGFPQSQY
B43: YPLRGSSIF (peptide)
peptide: YPLRGSSIF
B44: LPYGPGSEAAAF (peptide)
peptide: LPYGPGSEAAAF
B45: GPREALSRL (peptide)
peptide: GPREALSRL
B46: IPGPAQSTI (peptide)
peptide: IPGPAQSTI
B47: APLPRPGAVL (peptide)
peptide: APLPRPGAVL
B48: FPDNQRPAL (peptide)
peptide: FPDNQRPAL
B49: FPRLVGPDF (peptide)
peptide: FPRLVGPDF
B50: SPFSAEEANSL (peptide)
peptide: SPFSAEEANSL
B51: YPTEHVQF (peptide)
peptide: YPTEHVQF
B52: APAAWLRSA (peptide)
peptide: APAAWLRSA
B53: KVKSDRSVF (peptide)
peptide: KVKSDRSVF
B54: FPQSQYPQY (peptide)
peptide: FPQSQYPQY
B55: RPLFQKSSM (peptide)
peptide: RPLFQKSSM
B56: VPDQPHPEI (peptide)
peptide: VPDQPHPEI
B57: KPYGGSGPL (peptide)
peptide: KPYGGSGPL
B58: RVEEVRALL (peptide)
peptide: RVEEVRALL
B59: SPGATSRGTL (peptide)
peptide: SPGATSRGTL
B60: IPRPEVQAL (peptide)
peptide: IPRPEVQAL
B61: SPQSMSNTL (peptide)
peptide: SPQSMSNTL
B62: LPRPGAVL (peptide)
peptide: LPRPGAVL
B63: EPKTATVL (peptide)
peptide: EPKTATVL
B64: TPGLRETSI (peptide)
peptide: TPGLRETSI
B65: SPNKGTLSV (peptide)
peptide: SPNKGTLSV
B66: SPMATTSTL (peptide)
peptide: SPMATTSTL
B67: RPIVPGPLL (peptide)
peptide: RPIVPGPLL

target: T1, HLA-B*07:02 (human); test: UV-exchange b2m ELISA; exchange-yield grade
T1 construct: also called peptide-receptive MHC molecules
Excerpt: Candidate peptides for T cell based therapies according to the present invention were further tested for their MHC binding capacity (affinity). The individual peptide-MHC complexes were produced by UV-ligand exchange, where a UV-sensitive peptide is cleaved upon UV-irradiation, and exchanged with the peptide of interest as analyzed. Only peptide candidates that can effectively bind and stabilize the peptide-receptive MHC molecules prevent dissociation of the MHC complexes. To determine the yield of the exchange reaction, an ELISA was performed based on the detection of the light chain (β2m) of stabilized MHC complexes. The assay was performed as generally described in Rodenko et al. (Rodenko et al., 2006).
96 well MAXISorp plates (NUNC) were coated over night with 2 ug/ml streptavidin in PBS at room temperature, washed 4× and blocked for 1 h at 37° C. in 2% BSA containing blocking buffer. Refolded HLA-A*02:01/MLA-001 monomers served as standards, covering the range of 15-500 ng/ml. Peptide-MHC monomers of the UV-exchange reaction were diluted 100-fold in blocking buffer. Samples were incubated for 1 h at 37° C., washed four times, incubated with 2 ug/ml HRP conjugated anti-β2m for 1 h at 37° C., washed again and detected with TMB solution that is stopped with […]. Absorption was measured at 450 nm. Candidate peptides that show a high exchange yield (preferably higher than 50%, most preferred higher than 75%) are generally preferred for a generation and production of antibodies or fragments thereof, and/or T cell receptors or fragments thereof, as they show sufficient avidity to the MHC molecules and prevent dissociation of the MHC complexes.

Binder | peptide exchange yield [%]
B1 | 50 to 75
B2 | 20 to 50
B3 | 20 to 50
B4 | 20 to 50
B5 | 50 to 75
B6 | 20 to 50
B7 | 50 to 75
B8 | 50 to 75
B9 | 20 to 50
B10 | 50 to 75
B11 | 20 to 50
B12 | 50 to 75
B13 | 50 to 75
B14 | 20 to 50
B15 | 50 to 75
B16 | 50 to 75
B17 | 50 to 75
B18 | 50 to 75
B19 | 50 to 75
B20 | 20 to 50
B21 | 50 to 75
B22 | 50 to 75
B23 | 20 to 50

Binder | peptide exchange yield [%]
B24 | 50 to 75
B25 | 50 to 75
B26 | 50 to 75
B27 | 20 to 50
B28 | 50 to 75
B29 | 50 to 75
B30 | 50 to 75
B31 | 20 to 50
B32 | 50 to 75
B33 | 50 to 75
B34 | 50 to 75
B35 | 20 to 50
B36 | 50 to 75
B37 | 50 to 75
B38 | 50 to 75
B39 | 50 to 75
B40 | 20 to 50
B41 | 50 to 75
B42 | 20 to 50
B43 | 50 to 75
B44 | 50 to 75
B45 | 50 to 75
B46 | 20 to 50

Binder | peptide exchange yield [%]
B47 | 50 to 75
B48 | 50 to 75
B49 | 50 to 75
B50 | 50 to 75
B51 | 20 to 50
B52 | 20 to 50
B53 | 10 to 20
B54 | 50 to 75
B55 | 50 to 75
B56 | 50 to 75
B57 | 50 to 75
B58 | 50 to 75
B59 | 50 to 75
B60 | 50 to 75
B61 | 50 to 75
B62 | 50 to 75
B63 | 20 to 50
B64 | 20 to 50
B65 | 50 to 75
B66 | 50 to 75
B67 | 50 to 75
